T1: Gdi1 (GDP dissociation inhibitor) (UniProt P39958 1-451)
T1 sequence (looked up): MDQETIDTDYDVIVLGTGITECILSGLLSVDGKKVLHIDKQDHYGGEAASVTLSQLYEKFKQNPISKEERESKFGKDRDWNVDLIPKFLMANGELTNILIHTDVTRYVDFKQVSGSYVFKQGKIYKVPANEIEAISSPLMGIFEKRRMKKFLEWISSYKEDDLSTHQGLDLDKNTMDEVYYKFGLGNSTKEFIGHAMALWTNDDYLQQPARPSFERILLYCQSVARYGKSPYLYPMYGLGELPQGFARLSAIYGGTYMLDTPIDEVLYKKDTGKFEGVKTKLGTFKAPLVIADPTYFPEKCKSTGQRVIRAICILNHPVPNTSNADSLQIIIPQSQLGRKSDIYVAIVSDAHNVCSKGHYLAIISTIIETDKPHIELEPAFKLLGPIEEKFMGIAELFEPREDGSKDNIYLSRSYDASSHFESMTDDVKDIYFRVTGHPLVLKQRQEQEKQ


Biological target: T1, Gdi1 (GDP dissociation inhibitor)
Test: SEC

| binding result | Binder |
| --- | --- |
| binds | prenylated Ypt1 (mantGDP-labeled, of the Rab/GDI substrate) (natural protein, prenylated (geranylgeranyl) at the C-terminus; loaded with mantGDP) not shown |
| binds | prenylated Ypt31 (mantGDP-labeled, of the Rab/GDI substrate) (natural protein, S. cerevisiae, UniProt P38555 1-223, looked up, prenylated (geranylgeranyl) at the C-terminus; loaded with mantGDP) MSSEDYGYDYDLLFKIVLIGDSGVGKSNLLSRFTKNEFNMDSKSTIGVEFATRTLEIDGKRIKAQIWDTAGQERYRAITSAYYRGAVGALIVYDISKSSSYENCNHWLSELRENADDNVAVGLIGNKSDLAHLRAVPTEESKTFAQENQLLFTETSALNSENVDKAFEELINTIYQKVSKHQMDLGDSSANGNANGASAPNGPTISLTPTPNENKKANGNNCC |
